Assay results published in article PMC4562236.

Legend:
[1] = tested on: T1, His-ArsR (Bacillus sp. CDB3), ORF:1234e343; assay: EMSA; conditions: 10 mM Tris-HCl pH 7.6, 80 mM KCl, 0.2 mM EDTA, 0.2 mM DTT, 10% glycerol, 0.75 µM BSA, 30 µL, on ice 30 min; 6% native acrylamide gel in TBE pH 8.3
T1 sequence: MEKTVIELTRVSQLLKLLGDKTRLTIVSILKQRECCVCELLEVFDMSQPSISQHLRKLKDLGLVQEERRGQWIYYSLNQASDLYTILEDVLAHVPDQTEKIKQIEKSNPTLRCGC

[2] = tested on: T2, His-ArsD (Bacillus sp. CDB3), ORF:bd8c364d; assay: EMSA; conditions: 10 mM Tris-HCl pH 7.6, 80 mM KCl, 0.2 mM EDTA, 0.2 mM DTT, 10% glycerol, 0.75 µM BSA, 30 µL, on ice 30 min; 6% native acrylamide gel in TBE pH 8.3
T2 sequence: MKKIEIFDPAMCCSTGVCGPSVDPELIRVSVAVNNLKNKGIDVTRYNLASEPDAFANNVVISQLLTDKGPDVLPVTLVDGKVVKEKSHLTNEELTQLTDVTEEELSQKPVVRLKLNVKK

Row | Sequence | binding [1] | binding [2]
1 | TGAGACTGCTATGAAAGAAAACGGTGTTTCAACATTACGTTTTACATTTGATGGTGCTGGATGCTGTGGCCCTAGTTACGGTATTAATTTAGGTGAAGCACAAGAAAATGATGTCACAGAAACAGTCTAGAC (double strand) [proN] | no binding | 
2 | TTCAGTTGAATATATAAGCGGTTAATTATATACTTATTTCAAGAGGGAGAGAAAATTAAATATGAATCCATTTAATGAATATTACGTTTAATTTTTACTCAACATATAAGTATATGCTTATGCAATTATGAAAAGGAGGTATAGATATGGCTCTAGATA (double strand) [proR] | binds | no binding
